US20250136687A1 (SHANDONG SIMCERE BIOPHARMACEUTICAL, published 2025)
Read-outs that look alike come from different tables or passages of the source.

Assays:
[1] = target: T1, cynomolgus monkey CD3 on the surface of expanded monkey T cells (cynomolgus monkey, UniProt Q95LI5 22-198; Q95LI8 22-171; Q95LI7 23-181); experiment: FACS, expanded monkey T cells
T1 construct: whole, on cells; Endogenous CD3 within the TCR-CD3 complex on T cells expanded from cynomolgus monkey PBMC
Protocol: (§1) The binding of the chimeric antibodies to CD3 on the cell surface was analyzed by detecting the binding of the antibodies to Jurkat cells and human T cells. Suspension cells Jurkat cells were scale-up cultured in T-75 cell culture flasks to the logarithmic growth phase, the supernatant of the medium was discarded by centrifugation, and the cell pellet was washed 2 times with PBS for later use. The expanded human T cells were washed 2 times with PBS for later use. After counting the cells in the previous step, the cell pellet was resuspended with [PBS+2% (w/w) BSA] blocking solution to 4×10⁶ cells/ml, and added to a 96-well FACS reaction plate at 50 μl/well, and then the chimeric antibody to be tested was added at 50 μl/well, and incubated at 4° C. for 1 h. The cells were centrifuged and washed 3 times with a PBS buffer. […] The cells were centrifuged and washed 5 times with PBS, and FACS (FACS Canto™, purchased from BD Company) was used for detection and result analysis. Data analysis was performed by software (CellQuest) to obtain the mean fluorescence […] (MFI) of the cells. And then software (GraphPad Prism8) was used for analysis, data fitting, and EC50 value calculation. The same method was used to simultaneously detect the binding of the chimeric antibodies to endogenous CD3 negative cells MOLT4 cells.
(§2) FACS detection and data analysis were performed on the cryopreserved monkey T cells of Example 2.4 according to the method in Example 5.1.

[2] = target: T1, cynomolgus monkey CD3 on the surface of …; experiment: FACS, expanded monkey T cells; remark: listed apart in the source
Protocol: as §1, §2

[3] = target: T1, cynomolgus monkey CD3 on the surface of …; experiment: FACS, expanded monkey T cells; remark: listed apart in the source
Protocol: as §1, with “MOLT4 cells. […]” for “MOLT4 cells.”

human CD3ε/δ-His = target: T2, human CD3ε/δ-His (human, UniProt P07766 23-126; P04234 22-105); experiment: SPR, antibody captured on Protein A chip
T2 construct: Bought recombinant heterodimer with His tag; also called human CD3ε/δ protein
T2 sequence (P07766 23-126, stated change not applied, form in doubt, chain 1 of 2): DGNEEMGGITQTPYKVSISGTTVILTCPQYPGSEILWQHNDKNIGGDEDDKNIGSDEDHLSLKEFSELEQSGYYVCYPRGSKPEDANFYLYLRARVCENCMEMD
T2 sequence (P04234 22-105, stated change not applied, form in doubt, chain 2 of 2): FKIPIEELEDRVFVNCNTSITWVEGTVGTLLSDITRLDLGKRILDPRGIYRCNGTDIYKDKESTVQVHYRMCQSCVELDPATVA

T1 sequence (Q95LI5 22-198, chain 1 of 3): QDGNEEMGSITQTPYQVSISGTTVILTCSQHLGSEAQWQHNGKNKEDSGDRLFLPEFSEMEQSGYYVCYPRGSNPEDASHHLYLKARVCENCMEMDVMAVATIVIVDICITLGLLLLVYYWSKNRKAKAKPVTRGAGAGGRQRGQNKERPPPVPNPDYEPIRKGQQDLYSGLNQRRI
T1 sequence (Q95LI8 22-171, chain 2 of 3): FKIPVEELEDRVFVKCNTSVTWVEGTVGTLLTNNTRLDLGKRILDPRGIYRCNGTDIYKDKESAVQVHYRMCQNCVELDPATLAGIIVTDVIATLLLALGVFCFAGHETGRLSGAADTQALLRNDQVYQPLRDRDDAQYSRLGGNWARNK
T1 sequence (Q95LI7 23-181, chain 3 of 3): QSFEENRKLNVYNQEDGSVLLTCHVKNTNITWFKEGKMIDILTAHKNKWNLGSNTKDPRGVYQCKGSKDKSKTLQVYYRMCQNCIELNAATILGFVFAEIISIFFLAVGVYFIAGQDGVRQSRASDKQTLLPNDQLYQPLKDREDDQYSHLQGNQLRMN

B1: 40G5c-hIgG1 (antibody, V domains shown)
VH: EVQLVQSGAEVKKPGASVKVSCKASGYTFTNYYIHWVRQAPGQGLEWIGWIYPGDGNTKYNEKFKGRATLTADTSTSTAYLELSSLRSEDTAVYYCARDSYSNYYFDYWGQGTLVTVSS
VL: DIVMTQSPDSLAVSLGERATINCKSSQSLLNSRTRKNYLAWYQQKPGQPPKLLIYWASTRESGVPDRFSGSGSGTDFTLTISSLQAEDVAVYYCTQSFILRTFGQGTKVEIKR
- EC50 [1]: 0.28 nM
- MFI_Max [1]: 66000 MFI
- EC50 [2]: 0.63 nM
- MFI_Max [2]: 24100 MFI
- EC50 [3]: 0.53 nM
- Kd (human CD3ε/δ-His): 21.3 nM
- koff (human CD3ε/δ-His): 0.0327 s⁻¹
- kon (human CD3ε/δ-His): 1.53e+06 M⁻¹ s⁻¹
